Target: T1, HIV-1 JRFL envelope (Env, gp120-gp41) on HIV-1 JRFL pseudovirions (HIV-1 JR-FL, UniProt Q75760, strain)
T1 construct: also called HIV-1 JRFL virions; tier-2 JRFL pseudovirus; copies: 3 + 3
Experiment: FRET or BRET + other: fluorescence correlation spectroscopy (FRET-FCS); all reactants in solution; donor (Alexa 488) and acceptor (Alexa 568) labelled Fabs with virions at 10 μg/ml (about 1.5 virions in the 1 fL focal volume); FRET bursts and diffusion coefficient of the acceptor channel (6 μm^2/s for virion-bound Fab)
Details: one partner purified

B1: 2G12 Fab, Alexa 488- or Alexa 568-labelled (Fab, V domains shown)
VH: EVQLVESGGGLVKAGGSLILSCGVSNFRISAHTMNWVRRVPGGGLEWVASISTSSTYRDYADAVKGRFTVSRDDLEDFVYLQMHKMRVEDTAIYYCARKGSDRLSDNDPFDAWGPGTVVTVSP
VL: DVVMTQSPSTLSASVGDTITITCRASQSIETWLAWYQQKPGKAPKLLIYKASTLKTGVPSRFSGSGSGTEFTLTISGLQFDDFATYHCQHYAGYSATFGQGTRVEIK
Does B1 bind?
Result: binds

Source: publication PMC6628914 (Frontiers in Immunology, 2019)
